Data taken from publication PMC6990103 (Journal of molecular biology, 2019).

Experiments:
[1] = molecular target: T1, nluc-NP612 fusion protein, BDBV (Bundibugyo ebolavirus, Uganda 2007, UniProt B8XCM7); assay: far-Western, overlay or dot blot; conditions: both partners purified
T1 construct: also called BDBV NP612 C-terminus; source: E. coli BL21(DE3)+pRARE, cytosolic, purified (IMAC, SEC)

[2] = molecular target: T2, recombinant BDBV 2007 NP (Bundibugyo ebolavirus (BDBV)., UniProt B8XCM7); assay: far-Western, overlay or dot blot; conditions: both partners purified
T2 construct: also called BDBV NP

[3] = molecular target: T3, recombinant SUDV Boniface 1976 NP (Sudan ebolavirus, Boniface 1976, UniProt Q9QP77); assay: far-Western, overlay or dot blot; conditions: both partners purified
T3 construct: also called SUDV NP; full-length NP polymers

[4] = molecular target: T4, nluc-NP612 fusion protein, RESTV (Reston ebolavirus, Reston 1989 (isolate …, UniProt Q8JPY1)); assay: far-Western, overlay or dot blot; conditions: both partners purified
T4 construct: also called RESTV NP612 C-terminus; source: E. coli BL21(DE3)+pRARE, cytosolic, purified (IMAC, SEC)

[5] = molecular target: T5, recombinant TAFV IC1 1994 NP (Tai Forest ebolavirus (TAFV)., UniProt B8XCN6); assay: far-Western, overlay or dot blot; conditions: both partners purified
T5 construct: also called TAFV NP

[6] = molecular target: T6, nluc-NP612 fusion protein, SUDV (Sudan ebolavirus, Boniface 1976 …, UniProt Q9QP77); assay: far-Western, overlay or dot blot; conditions: both partners purified
T6 construct: also called SUDV NP612 C-terminus; source: E. coli BL21(DE3)+pRARE, cytosolic, purified (IMAC, SEC)

[7] = molecular target: T7, nluc-NP612 fusion protein, TAFV (Tai Forest ebolavirus, IC1 1994, UniProt B8XCN6); assay: far-Western, overlay or dot blot; conditions: both partners purified
T7 construct: also called TAFV C-terminus; source: E. coli BL21(DE3)+pRARE, cytosolic, purified (IMAC, SEC)

[8] = molecular target: T1, nluc-NP612 fusion protein, BDBV; assay: ELISA; conditions: both partners purified
[9] = molecular target: T2, recombinant BDBV 2007 NP; assay: ELISA; conditions: both partners purified
[10] = molecular target: T3, recombinant SUDV Boniface 1976 NP; assay: ELISA; conditions: both partners purified
[11] = molecular target: T4, nluc-NP612 fusion protein, RESTV; assay: ELISA; conditions: both partners purified
[12] = molecular target: T8, NP of TAFV IC1 1994 in live virus preparation (Tai Forest ebolavirus (TAFV)., UniProt B8XCN6); assay: ELISA; conditions: one partner purified
T8 construct: also called TAFV (virus)

[13] = molecular target: T5, recombinant TAFV IC1 1994 NP; assay: ELISA; conditions: both partners purified
[14] = molecular target: T9, NP of SUDV Boniface 1976 in live virus preparation (Sudan ebolavirus, Boniface 1976, UniProt Q9QP77); assay: ELISA; conditions: one partner purified
T9 construct: also called SUDV (virus)

[15] = molecular target: T6, nluc-NP612 fusion protein, SUDV; assay: ELISA; conditions: both partners purified
[16] = molecular target: T7, nluc-NP612 fusion protein, TAFV; assay: ELISA; conditions: both partners purified

Measured: binding result

B1: sdAb ZE alkaline phosphatase fusion (VHH)
VHH: QVQLQESGGGLVQPGGSLRLSCTASGFTLAEYGVGWFRQAPGKERELVALIAVGGTTHSIDSVKGRFTISRDNMKNTVYLQMNSLNVEDTAVYYCNAYSSAYDRNYWGQGTQVTVSS
notes: also called sdAb-AP fusion of ZE; source: previously generated [9], stored at -80 °C
binds: [1] | [2] | [3] | [4] | [5] | [6] | [7]

B2: sdAb ZE, biotinylated (from pecan126) (VHH)
VHH: QVQLQESGGGLVQPGGSLRLSCTASGFTLAEYGVGWFRQAPGKERELVALIAVGGTTHSIDSVKGRFTISRDNMKNTVYLQMNSLNVEDTAVYYCNAYSSAYDRNYWGQGTQVTVSS
notes: also called anti-Ebola virus sdAb; oriented sdAb captor; source: E. coli HBV88, pecan126 preparations
binds: [8] | [9] | [10] | [11] | [12] | [13] | [14] | [15] | [16]
